Assay results from patent US20130143798A1 (Novo Nordisk, published 2013).
Like-named read-outs stand apart in the source and are kept apart here. Numbered stars: 1 amine (or outer) side, 2 acyl side, 3 side chain; on linkers, the order of the positions; unused ones are H or OH. Square brackets hold non-standard residues; d marks the D form. Side chains are listed from the residue outwards. Ends that are not written are not given here. * marks the point of attachment. C18 diacid = O=C(O)CCCCCCCCCCCCCCCCC(=O)*; γGlu = O=C(O)[C@H](CCC(=O)[*:2])N[*:1]; AEEA = NCCOCCOCC(=O)O

Key:
[1] = target: T1, glucagon receptor (UniProt P47871 26-477, limits assumed); assay: cell-based or functional assay
T1 sequence (P47871 26-477 limits assumed): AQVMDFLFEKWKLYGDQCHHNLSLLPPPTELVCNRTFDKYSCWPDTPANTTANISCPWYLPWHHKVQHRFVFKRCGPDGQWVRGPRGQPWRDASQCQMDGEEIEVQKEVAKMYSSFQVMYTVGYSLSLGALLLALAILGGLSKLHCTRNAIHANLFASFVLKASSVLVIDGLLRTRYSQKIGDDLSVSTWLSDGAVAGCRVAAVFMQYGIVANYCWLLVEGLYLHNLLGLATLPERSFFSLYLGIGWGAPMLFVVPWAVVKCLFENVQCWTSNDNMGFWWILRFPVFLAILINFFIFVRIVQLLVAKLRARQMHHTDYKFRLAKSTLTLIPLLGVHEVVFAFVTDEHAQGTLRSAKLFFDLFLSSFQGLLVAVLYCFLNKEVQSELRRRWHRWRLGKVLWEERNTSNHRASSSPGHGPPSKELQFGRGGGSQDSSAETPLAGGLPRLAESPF

[2] = target: T1, glucagon receptor; assay: cell-based or functional assay; remark: listed apart in the source

B1: N^ε28-[(4S)-4-carboxy-4-[[(4S)-4-carboxy-4-[[2-[2-[2-[[2-[2-[2-[[(4S)-4-carboxy-4-(17-carboxyheptadecanoylamino)butanoyl]amino]ethoxy]ethoxy]acetyl]amino]ethoxy … (peptide)
peptide: HSQGTFTSDYSKYLDSRRAQDFVQWLLK([γGlu-γGlu-AEEA-AEEA-γGlu-C18 diacid])P
In the case of B1, the “Assay (I) Glucagon [EC50]” value [1] is reported as 0.189 nM.

B2: N^ε20-[(4S)-4-carboxy-4-[[(4S)-4-carboxy-4-[[2-[2-[2-[[2-[2-[2-[[(4S)-4-carboxy-4-(17-carboxyheptadecanoylamino)butanoyl]amino]ethoxy]ethoxy]acetyl]amino]ethoxy … (peptide)
peptide: HSQGTFTSDYSKYLDSRRAK([γGlu-γGlu-AEEA-AEEA-γGlu-C18 diacid])DFVQWLLNT
With B2 the “Assay (I) Glucagon [EC50]” value [1] was 0.058 nM.

B3: N^ε27-[(4S)-4-carboxy-4-[[(4S)-4-carboxy-4-[[2-[2-[2-[[2-[2-[2-[[(4S)-4-carboxy-4-(17-carboxyheptadecanoylamino)butanoyl]amino]ethoxy]ethoxy]acetyl]amino]ethoxy … (peptide)
peptide: HSQGTFTSDYSRYLDSRRAQDFVQWLK([γGlu-γGlu-AEEA-AEEA-γGlu-C18 diacid])NP
B3 was tested, and the “Assay (I) Glucagon [EC50]” value [1] was 2.11 nM.

B4: N^ε28-([(4S)-5-hydroxy-4-[[(4S)-5-hydroxy-4-[[2-[2-[2-[[2-[2-[2-[[(4S)-5-hydroxy-4-[(18-hydroxy-18-oxooctadecanoyl)amino]-5-oxopentanoyl]amino]ethoxy]ethoxy]ace … (peptide)
peptide: HSQGTFTSDYSKYLDSRRAQDFVQWLLK([γGlu-γGlu-AEEA-AEEA-γGlu-C18 diacid])T
In the case of B4, the “Assay (I) Glucagon [EC50]” value [1] is reported as 0.055 nM and the “Assay (I) Glucagon [EC50]” value [2] is reported as 0.055 nM.

B5: N^α-([Leu^27]Glucagonyl) … (peptide)
peptide: HSQGTFTSDYSKYLDSRRAQDFVQWLLNTK
modifications: C-terminal Lys (position 30): N-epsilon acylated with the substituent printed in the name
B5 was tested, and the “Assay (I) Glucagon [EC50]” value [1] was 0.056 nM and the “Assay (I) Glucagon [EC50]” value [2] was 0.056 nM.

B6: N^ε24-[(4S)-4-carboxy-4-[[(4S)-4-carboxy-4-[[2-[2-[2-[[2-[2-[2-[[(4S)-4-carboxy-4-(17-carboxyheptadecanoylamino)butanoyl]amino]ethoxy]ethoxy]acetyl]amino]ethoxy … (peptide)
peptide: HSQ[dF]TFTSDYSKYLDSRRAQDFVK([γGlu-γGlu-AEEA-AEEA-γGlu-C18 diacid])WLLST
In the case of B6, the “Assay (I) Glucagon [EC50]” value [1] is reported as 0.044 nM.

B7: N^ε27-[(4S)-4-carboxy-4-[[(4S)-4-carboxy-4-[[2-[2-[2-[[2-[2-[2-[[(4S)-4-carboxy-4-(17-carboxyheptadecanoylamino)butanoyl]amino]ethoxy]ethoxy]acetyl]amino]ethoxy … (peptide)
peptide: HSQGTFTSDYSKYLDSRRAQDFVQWLK([γGlu-γGlu-AEEA-AEEA-γGlu-C18 diacid])NP
B7 was tested, and the “Assay (I) Glucagon [EC50]” value [1] was 1.17 nM.

B8: N^ε24-[(4S)-4-carboxy-4-[[(4S)-4-carboxy-4-[[2-[2-[2-[[(4S)-4-carboxy-4-(17-carboxyheptadecanoylamino)butanoyl]amino]ethoxy]ethoxy]acetyl]amino]butanoyl]amino]b … (peptide)
peptide: HSQGTFTSDYSKYLDSRRAQEFVK([γGlu-γGlu-AEEA-γGlu-C18 diacid])WLLST
For B8, the “Assay (I) Glucagon [EC50]” value [1] was 0.053 nM.

B9: N^ε24-[(4S)-4-carboxy-4-[[(4S)-4-carboxy-4-[[2-[2-[2-[[(4S)-4-carboxy-4-(17-carboxyheptadecanoylamino)butanoyl]amino]ethoxy]ethoxy]acetyl]amino]butanoyl]amino]b … (peptide)
peptide: HSQGTFTSEYSKYLDSRRAQDFVK([γGlu-γGlu-AEEA-γGlu-C18 diacid])WLLST
In the case of B9, the “Assay (I) Glucagon [EC50]” value [1] is reported as 2.2 nM.

B10: N^ε29-([(4S)-5-hydroxy-4-[[(4S)-5-hydroxy-4-[[2-[2-[2-[[2-[2-[2-[[(4S)-5-hydroxy-4-[(18-hydroxy-18-oxooctadecanoyl)amino]-5-oxopentanoyl]amino]ethoxy]ethoxy]ace … (peptide)
peptide: HSQGTFTSDYSKYLDSRRAQDFVQWLLNK([γGlu-γGlu-AEEA-AEEA-γGlu-C18 diacid])
B10 was tested, and the “Assay (I) Glucagon [EC50]” value [1] was 0.095 nM and the “Assay (I) Glucagon [EC50]” value [2] was 0.095 nM.

B11: N^ε24-[(4S)-4-carboxy-4-[[(4S)-4-carboxy-4-[[2-[2-[2-[[(4S)-4-carboxy-4-(17-carboxyheptadecanoylamino)butanoyl]amino]ethoxy]ethoxy]acetyl]amino]butanoyl]amino]b … (peptide)
peptide: HSQGTFTSDYSKYLDSRRAEEFVK([γGlu-γGlu-AEEA-γGlu-C18 diacid])WLLST
In the case of B11, the “Assay (I) Glucagon [EC50]” value [1] is reported as 0.12 nM.
